Patent publication US6395548, “Methods of modulating of angiogenesis” (President and Fellows of Harvard College)

How the values were obtained:
HIF-1alpha/ARNT4 = HIF-1alpha/ARNT4 (Homo sapiens, UniProt Q16665;Q8WYA1-5 Q16665:1-826,Q8WYA1-5:1-602); assay: EMSA; HIF-1 did not form dimers with ARNT4 and bind the site
EPAS1/ARNT4 heterodimer = EPAS1/ARNT4 heterodimer (Homo sapiens, UniProt Q99814;Q8WYA1-5 Q99814:1-870,Q8WYA1-5:1-602); assay: EMSA; probe described as HIF-1 site / hypoxia responsive element of VEGF
Sequence of EPAS1/ARNT4 heterodimer (Q99814 whole entry, chain 1 of 2): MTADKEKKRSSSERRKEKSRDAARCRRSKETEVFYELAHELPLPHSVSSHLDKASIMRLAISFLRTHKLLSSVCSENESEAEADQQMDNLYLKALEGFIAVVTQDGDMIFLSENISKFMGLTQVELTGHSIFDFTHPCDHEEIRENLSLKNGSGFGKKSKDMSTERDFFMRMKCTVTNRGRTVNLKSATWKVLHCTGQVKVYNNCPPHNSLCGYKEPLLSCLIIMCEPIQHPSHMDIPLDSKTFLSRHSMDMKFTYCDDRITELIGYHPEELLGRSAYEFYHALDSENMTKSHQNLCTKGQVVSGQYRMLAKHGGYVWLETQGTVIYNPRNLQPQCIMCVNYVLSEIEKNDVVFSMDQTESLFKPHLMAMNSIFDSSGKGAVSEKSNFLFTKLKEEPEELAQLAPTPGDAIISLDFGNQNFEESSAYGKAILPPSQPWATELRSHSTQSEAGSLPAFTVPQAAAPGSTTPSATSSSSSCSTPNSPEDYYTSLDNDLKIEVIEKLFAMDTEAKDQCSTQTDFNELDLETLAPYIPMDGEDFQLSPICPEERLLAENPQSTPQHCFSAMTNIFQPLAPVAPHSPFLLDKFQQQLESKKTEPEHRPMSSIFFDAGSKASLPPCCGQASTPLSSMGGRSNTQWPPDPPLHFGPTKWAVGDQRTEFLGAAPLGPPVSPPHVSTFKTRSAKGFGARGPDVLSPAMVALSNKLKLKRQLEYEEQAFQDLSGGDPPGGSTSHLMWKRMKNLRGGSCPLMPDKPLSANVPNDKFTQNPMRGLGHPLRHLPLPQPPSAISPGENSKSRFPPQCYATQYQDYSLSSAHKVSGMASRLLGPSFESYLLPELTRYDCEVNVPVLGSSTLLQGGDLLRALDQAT
Sequence of EPAS1/ARNT4 heterodimer (Q8WYA1 other isoform, or with tags, fused parts or gaps, chain 2 of 2): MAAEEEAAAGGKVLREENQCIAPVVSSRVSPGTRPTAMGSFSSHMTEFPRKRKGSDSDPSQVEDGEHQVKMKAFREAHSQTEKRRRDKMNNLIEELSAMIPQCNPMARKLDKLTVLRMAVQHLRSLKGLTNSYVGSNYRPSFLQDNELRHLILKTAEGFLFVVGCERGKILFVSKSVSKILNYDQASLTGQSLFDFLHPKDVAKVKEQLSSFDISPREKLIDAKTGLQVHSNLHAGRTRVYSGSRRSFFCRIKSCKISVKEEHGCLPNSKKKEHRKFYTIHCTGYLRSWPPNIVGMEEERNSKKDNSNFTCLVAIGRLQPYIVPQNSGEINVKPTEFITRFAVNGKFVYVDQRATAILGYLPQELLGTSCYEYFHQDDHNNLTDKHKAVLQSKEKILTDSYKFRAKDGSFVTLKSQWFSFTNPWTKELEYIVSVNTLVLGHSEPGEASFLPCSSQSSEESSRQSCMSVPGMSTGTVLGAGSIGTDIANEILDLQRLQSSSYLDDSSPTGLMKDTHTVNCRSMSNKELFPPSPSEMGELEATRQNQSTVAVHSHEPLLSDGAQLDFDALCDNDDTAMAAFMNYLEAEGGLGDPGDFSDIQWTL

Sequence of HIF-1alpha/ARNT4 (Q16665 whole entry, chain 1 of 2): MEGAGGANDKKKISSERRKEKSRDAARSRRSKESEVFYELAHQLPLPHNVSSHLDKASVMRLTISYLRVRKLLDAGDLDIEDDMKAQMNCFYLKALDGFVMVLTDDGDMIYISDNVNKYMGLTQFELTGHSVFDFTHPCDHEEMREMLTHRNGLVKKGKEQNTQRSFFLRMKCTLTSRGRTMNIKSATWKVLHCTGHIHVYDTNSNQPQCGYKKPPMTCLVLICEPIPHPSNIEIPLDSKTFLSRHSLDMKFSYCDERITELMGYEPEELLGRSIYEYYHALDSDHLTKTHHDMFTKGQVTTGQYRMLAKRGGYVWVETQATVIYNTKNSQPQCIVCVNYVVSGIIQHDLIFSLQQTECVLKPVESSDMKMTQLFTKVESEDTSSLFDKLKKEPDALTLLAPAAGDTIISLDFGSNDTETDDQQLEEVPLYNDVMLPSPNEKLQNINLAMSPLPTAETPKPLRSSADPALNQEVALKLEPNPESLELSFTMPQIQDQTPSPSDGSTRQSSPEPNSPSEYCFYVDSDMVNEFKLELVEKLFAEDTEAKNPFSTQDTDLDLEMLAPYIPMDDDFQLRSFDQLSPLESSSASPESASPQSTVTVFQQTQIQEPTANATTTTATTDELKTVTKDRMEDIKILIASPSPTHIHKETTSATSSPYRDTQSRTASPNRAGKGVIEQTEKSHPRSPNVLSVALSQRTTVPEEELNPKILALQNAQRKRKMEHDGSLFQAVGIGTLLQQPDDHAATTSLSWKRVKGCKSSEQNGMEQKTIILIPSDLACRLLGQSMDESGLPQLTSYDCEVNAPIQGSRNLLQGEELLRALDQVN
Sequence of HIF-1alpha/ARNT4 (Q8WYA1 other isoform, or with tags, fused parts or gaps, chain 2 of 2): as the sequence (Q8WYA1 other isoform, or with tags, fused parts or gaps, chain 2 of 2) above

B1: VEGF promoter HIF-1 binding site / hypoxia responsive element (dsDNA)
DNA 1: GCCCTACGTGCTGTCTCA
DNA 2: TGAGACAGCACGTAGGGC
HIF-1alpha/ARNT4
  binding result: no binding
EPAS1/ARNT4 heterodimer
  binding result: binds
